{
  "source": "the DeepSol protein solubility set",
  "data": [
    {"assay": "soluble on expression in E. coli; label from the status in PepcDB or PDB records", "values": [
      {"sequence": "MGSDKIHHHHHHMIPRNEYLENLISFRDKQLIKVVTGIRRCGKSTLFELYQDYLLQNDVKPEQIIAFNLEDGDWAEIENSKDLYELVKARLLPDRMNYVFLDEVQRVTDFQKAVDSLFIKKNCDVYITGSNAYLLSGELATLLSGRYVEIKMLPLSFKEYVSAFPPDSSIDRLYQDYIHNSSFPYTLELKRQKDIRQYLDGLYDSIVLKDIVARRRFPDLAMLQSVVRFLFDNIGNLCSTKKIADTMTSAGRKITVHTVESYLTALTDSFIFYRVGRYDVKGKQYLKTGDKYYAADMGLRYNALGTKKADAGHILENIVYLELLRRGYEVHIGKVGAAEIDFIAIGPEGEEYYQVAYTVMDADGKTLQRELAPLDAISDHNPKFLLTMDHGPLVSHNGIKQLNALDWLLK", "soluble on expression in E. coli": "not soluble"},
      {"sequence": "MINVSDLTQKLPEGSNAGVIAKNINQNQIIADYNGSTFMLPASTQKVFTAVAAKLALGDQFQFETALLSNGKIQNGNLDGNLIVSFTGDPDLTRGQLYSLLAELKKQGIKKINGDLVLDTSVFSSHDRGLGWIWNDLTMCFNSPPAAANIDNNCFYAELDANKNPGEIVKINVPAQFPIQVFGQVYVADSNEAPYCQLDVVVHDNNRYQVKGCLARQYKPFGLSFAVQNTDAYAAAIIQRQLRKLGIEFNGKVLLPQKPQQGQLLAKHLSKPLPDLLKKMMKKSDNQIADSLFRAVAFNYYKRPASFQLGTLAVKSILQKQGIRFGNSILADGSGLSRHNLVAPKTMLSVLEYIAKNEDKLHLMETFPIAGVDGTISGRGGLISPPLVKNVIAKTGSLKGVYNLAGFMTNARGEKVAFVQFINGYSTGDLESKTKRAPLVQFERNLYNELYKY", "soluble on expression in E. coli": "soluble"},
      {"sequence": "MFLKILPRIRRPTRSYAAVLAARHEGFAKVMQSDLMAFENFLGQDAVKKDDITNHTTDWTGQFKGPGSVVLYPKSTEEVSAILAYCSKNKLAVVPQGGNTGLVGGSIPVHDEVVISMNKINKQFSFDDTMGILKCDSGFILEDLDNKLAKLGYMMPFDLGAKGSCQIGGNIATCAGGIRLIRYGSLHAHLLGLTVVLPDEHGTVLHLGSSIRKDNTTLHTPHLFLGSEGQLGVITSVTMTAVPKPKSVQSAMLGIESFKKCCEVLKLAKSSLTEILSSFELLDDATMECLKTNLGLHPVLNAPTPFSILVETSGSNEDHDMEKMSAFLDECLSKNLIIDGVLAGSSAEATKMWQLRESAPLAVTRDGYVYKHDVSLPLENYYELTNVMKERCGSLAKRIVTYGHLGDGNTHLNITSEKHNEELEKLLYPFLYEWVVDHGGSISAEHGIGQLKLPYSTFGKDPEERLLTKKLKNIFDPNGILNPYKTI", "soluble on expression in E. coli": "not soluble"},
      {"sequence": "MMKKALLIDDECWLRVQARDASADGRFVFAVRTTGVFCRPSCRSKRALRKNVRFFANAQQALDAGFRPCKRCQPDNARAQQRRLDKIACACRLLEQETPVTLAFLAQAVAMSPFHLHRLFKASTGMTPKGWQQAWRARRLREALAKGEPITAAIYRAGFPDSSSYYRHADQTLGMTAKQFRKGGDNVSVRYALTDWVYGRCLVAESERGICAILPGDSDDALLAELHTLFPSARHEPADALFQQRVRQVVAAINTRDVLLSLPLDIQGTAFQQQVWQALCAIPCGETVSYQQLAATIGKPTAVRAVASACGANKLAMVIPCHRVVRRDGALSGYRWGVRRKAQLLKREAQKEE", "soluble on expression in E. coli": "not soluble"},
      {"sequence": "MSSVTAPRLDRATMGRKGGQKAAERWKTDPESDYATAQRETLAAANKRGARQGTGTRGRVLAVYSQTLVDTGEVPTARQIAGEIGITKRMVNIHLKELRDAGLVEQGLRDIWACGRNLGGFPV", "soluble on expression in E. coli": "not soluble"},
      {"sequence": "MGSDKIHHHHHHMTDTISYQYAAPSVLQRSSDQDELFLAKYSEIEKKEAPCFFWGKLTQPYMTARCLIALSNVVQSSFNLTPAQLSMLKDPIVTAGNERLRFEGFSNCAGVYARVDVLPDGHDGEFLENGTTNVDFNAGMISALGSISKQEKVVMSVGPKEVGLYNKGEKVIERKVPLPVKWIKGLTTVQIYQSVAERMYSFNRIQTLQLFQTLPKGTVKCDYYLVMRGQKPAFSPVKSLNAVCIGGVHRLRLLEPLLPFADELRVFVHPTMQSTIWQLYFGPVRFSLSLSRECWRGFSGEGAALDALLEDVPEKWIAAMDKYSYANQQFNPTLFAIEEHIDLDKVDSLSARLAAMGLLGFDLDDNSFFYRRLPFKTERILSLNPRMIAAEKLLEEEKVEIISNDGNRTEARVAGSGGVRHTVILDRESEKERCTCTWFSGNQGERGACKHILAVKKRVQWKN", "soluble on expression in E. coli": "not soluble"},
      {"sequence": "GSAGDVTNDLSHVRKIIVACDAGMGSSAMGAGVLRKKIQDAGLSQISVTNSAINNLPPDVDLVITHRDLTERAMRQVPQAQHISLTNFLDSGLYTSLTERLVAAQRHTENEVKVKDSLKDSFDDS", "soluble on expression in E. coli": "soluble"},
      {"sequence": "MPAYPREGKIIQIHSYKHNGTIHRIWQETVVLKGTPSYVIGGNNKTLVMEADGRTWVTREPAICFFHAKHWFNIIAMIREDGVYYYCNLSSPFVWDEEALKYIDYDLDIKVFPDMTYMLLDEDEYERHRREMHYPDVIDRILKNNVQKLIGWIKERKGPFAPEFIDKWYGVFQAYQT", "soluble on expression in E. coli": "not soluble"},
      {"sequence": "MAKQDVIELEGTVLDTLPNAMFKVELENGHEILAHVSGKIRMNYIRILPGDKVTVEMSPYDLTRGRITYRYK", "soluble on expression in E. coli": "not soluble"},
      {"sequence": "TCPAACHCPLEAPKCAPGVGLVRDGCGCCKVCAKQLNEDCSKTQPCDHTKGLECNFGASSTALKGICRAQSEGRPCEYNSRIYQNGESFQPNCKHQCTCIDGAVGCIPLCPQELSLPNLGCPNPRLVKVTGQCCEEWVCDEDSIKDPMEDQDGLLGKELGFDASEVELTRNNELIAVGKGSSLKRLPVFGMEPRILYNPLQGQKCIVQTTSWSQCSKTCGTGISTRVTNDNPECRLVKETRICEVRPCGQPVYSSLKKGKKCSKTKKSPEPVRFTYAGCLSVKKYRPKYCGSCVDGRCCTPQLTRTVKMRFRCEDGETFSKNVMMIQSCKCNYNCPHANEAAFPFYRLFNDIHKFRD", "soluble on expression in E. coli": "soluble"},
      {"sequence": "MGSSHHHHHHGGTGENLYFQGGSGLRRTEIALKKGWTHNPGHTRRGGKNLAWRPKISDAKLSQFVPLALVHPRRHPNNWQERQFNALGYTKWPKDIGFYNAGDNFEVTPEAAWRLYVHARDEPYWGKLHCEKTIITLLPVVEKAPKENMERVLDVFRHYLKRYGADHYIYNAVMQAAAFAKNYEQAEQLFKEMETLGLEPNAQSYVNMMLAAKLCGLPPEKSEAYFKRAVKDGAMQSVMRMDTEFRMWMDQLDRLGSFTASSGYLSVNEEGAKPMPRDMWAIWGWHRSESKFISRRDLIMQQVRARVHSGKELVGTVYTKTRRQPWAKFNGMLRHDYNGPSYRAPTIFPDAPEYTNEAGHKAF", "soluble on expression in E. coli": "soluble"},
      {"sequence": "MSLGDKPLQTVLHDEHYGGLDFSLGDSKYSGELEYNKSYMVNFSVNLPAEGSVKVAKAYVYWVWSKKDLEGIYPQFNASIINSETTAPLPKGHMYTDTKGFVSRYDYFSGMNTYDLSGKISKSGNYSISLVNTDKNGSTFCVQGIGLLLVYEDPKSPAIEYWINEGCDMLYADYGITPEVATTTTYFKGDIDPDNVTDARLITVSPSGGYSSGREARNKLFFNEETRSIPVLGDIVQLLFGSGKVWENVYQTNETVQIALDEKPVADYLEPTENFASIQDNGDYLLATNAILVLKFKGPESSETKGSEGHHHHHH", "soluble on expression in E. coli": "soluble"},
      {"sequence": "MSLATLDVNPELYQAQLADKIARLKAMFVDYSMPELEVFESPVANYRMRAEFRIWHEGDDMYYIMFNQETREKYRVDQFPAASRLINDLMPLLMDAMKGSPILRHKLFQVDFLSTLSGEILVSLLYHRQLSEEWITAAQALKQRLNDEGFNLNLIGRARKMKVVLDRDYVVENLQVNGQPYVYKQVENSFTQPNAKVAEKMLEWAVDCTQESKGDLLELYCGNGNFSLALAQNFERVLATELAKPSVEAAQFNIAANQIGNVQIIRMSAEEFTQAMEGKREFNRLKDAGVDLQSYRCNTIFVDPPRSGMDIDTCKMVQGYERILYISCNPETLQENLQVLGETHQVVRFALFDQFPYTHHMEAGVMLERKKEGHHHHHH", "soluble on expression in E. coli": "soluble"},
      {"sequence": "MAASAWCCLRCCRDGGTGHIPLKEMPAVQLDTQHMGTDVVIVKNGRRICGTGGCLASAPLHQNKSYFEFKIQSTGIWGIGVATQKVNLNQIPLGRDMHSLVMRNDGALYHNNEEKNRLPANSLPQEGDVVGITYDHVELNVYLNGKNMHCPASGIRGTVYPVVYVDDSAILDCQFSEFYHTPPPGFEKILFEQQIF", "soluble on expression in E. coli": "soluble"},
      {"sequence": "HRPEGLEQLEAQTNFTKRELQVLYRGFKNECPSGVVNEETFKQIYAQFFPHGDASTYAHYLFNAFDTTQTGSVKFEDFVTALSILLRGTVHEKLRWTFNLYDINKDGYINKEEMMDIVKAIYDMMGKYTYPVLKEDTPRQHVDVFFQKMDKNKDGIVTLDEFLESCQEDDNIMRSLQLFQNVM", "soluble on expression in E. coli": "soluble"},
      {"sequence": "MGSDKIHHHHHHMHPALWISKTGLDAQQTDISVISNNVANASTIGYKKSRAVFEDLLYQTVNQAGGISADNTKLPNGLNIGAGTKVVATQKMFSQGNMLTTDNSLDLMIEGPGFFEVQLPDGTPAYTRNGQFSLDDTGQIVTPGSGYVLQPAITIPENATGITVSAGGEVSVKIPGTAESQVIGQITMTDFINPSGLDPLGQNLYTETGASGTPIQGTASLDGLGAIRQGALETSNVNVTEELVNLIQSQRIYEMNSKVISAVDQMLAYINQNL", "soluble on expression in E. coli": "not soluble"},
      {"sequence": "MRNWKVTGKYPQLDGTGAVASTHIIIAAEDGAVIPQLIKQDLTSTNDTEIIKAALEEFKKSEYVEIAMGEAVQKVDDLEKISQETAKTAKTAQTAAGLAKVSAERTQRMINLQTIHVLTSGGNVEPDIYKGMLELIEPAKQGEYQAYDVFTVVDESHEDQAVEGNLVFVHVNEPFTYEAQTLKDLESEDKVTVIKYADLVKQD", "soluble on expression in E. coli": "not soluble"},
      {"sequence": "MKVEKFKVLLYLKKSEPDKNGKAPIMGRITLNRTMAQFSCKLSCTPELWNARESRLNGKSRKAVETNEKIERLLLAVHSAFNSLMERKKDFDAAAVRDMFQGNAGIQMTLLKLLDRHNGEMKARVGVDRAPTTLSTYLFTYRTLSEFIKAKFKVSDLAFGQLNEQFIRDYQDFILMEKGHAVDTLRGYLAILKKICRIAYKEGHSEKYHFCHFKLPKQKESTPKALSRENFEKLRDLEIPEKRRSHVITRDLFLFACYTGTAYADVVSITRENLFTDEENNLWLKYRRKKTNYLGRVKLLPEALVLIEKYRDDARMTLFPPQDYHTLRANMKSLRLMAGLSQDLVYHTARHSFASLITLEEGVPIETISKMLGHSNIKTTQIYARVTPKRLFEDMDRFIEATRDLKLIL", "soluble on expression in E. coli": "not soluble"},
      {"sequence": "MGSDKIHHHHHHMIMATLKDIAKLAKVSQATVSRVLNKDETLSVSQKTKHRILMVADELGYQKHLKTTNSPQVRQKIAIVQWYSQQEELNDLYYYSIRIGIEKRAQELDYDIVRYFDNDISKVSADIVGLIAIGKFSTYQIAELEKLSDKLIFVDSDTLNAGYPCVMTDFDNAVVKVLDYFLDHGLTKIGMIAGEEKTTDGRELLIDQRFRTFRNYAYEQDIYNPNYIFIGDFSAQTGYHLMKKAIKELKENLPQAFFIANDSLAIGALRALQEANIPVPNRVSLISFNDTALTKQVFPALSSITVFTKEMGRTAVDILNRQILNPDIIPSMTRLTTQLTLRESSI", "soluble on expression in E. coli": "not soluble"},
      {"sequence": "MSLAANMYRVGDYVYFENSSSNPYLIRRIEELNKTANGNVEAKVVCFYRRRDISSTLIALADKHATLSVCYKAGPGADNGEEGEIEEEMENPEMVDLPEKLKHQLRHRELFLSRQLESLPATHIRGKCSVTLLNETESLKSYLEREDFFFYSLVYDPQQKTLLADKGEIRVGNRYQADITDLLKEGEEDGRDQSRLETQVWEAHNPLTDKQIDQFLVVARSVGTFARALDCSSSVRQPSLHMSAAAASRDITLFHAMDTLHKNIYDEGHHHHHH", "soluble on expression in E. coli": "not soluble"}
    ]}
  ]
}
